Measured values: paper PMC12350670, “The characterization of variable new antigen receptors targeting FAP isolated from a novel immunized library” (Communications Biology, 2025)

What was measured:
[1] = molecular target: T1, recombinant human fibroblast activation protein (human, UniProt Q12884 39-757, biotin (EZ-link NHS-PEG4-biotin)); experiment: BLI; biotinylated bait protein (30 nM) loaded on Octet streptavidin (SAX) biosensors; serially diluted VNAR-Fc (300-0.412 nM) as analyte; PBS with 1% BSA; kinetic analysis with a bivalent analyte model; settings: both partners purified
T1 construct: also called hFAP; human FAP; source: bought: Acro Biosystems
T1 sequence: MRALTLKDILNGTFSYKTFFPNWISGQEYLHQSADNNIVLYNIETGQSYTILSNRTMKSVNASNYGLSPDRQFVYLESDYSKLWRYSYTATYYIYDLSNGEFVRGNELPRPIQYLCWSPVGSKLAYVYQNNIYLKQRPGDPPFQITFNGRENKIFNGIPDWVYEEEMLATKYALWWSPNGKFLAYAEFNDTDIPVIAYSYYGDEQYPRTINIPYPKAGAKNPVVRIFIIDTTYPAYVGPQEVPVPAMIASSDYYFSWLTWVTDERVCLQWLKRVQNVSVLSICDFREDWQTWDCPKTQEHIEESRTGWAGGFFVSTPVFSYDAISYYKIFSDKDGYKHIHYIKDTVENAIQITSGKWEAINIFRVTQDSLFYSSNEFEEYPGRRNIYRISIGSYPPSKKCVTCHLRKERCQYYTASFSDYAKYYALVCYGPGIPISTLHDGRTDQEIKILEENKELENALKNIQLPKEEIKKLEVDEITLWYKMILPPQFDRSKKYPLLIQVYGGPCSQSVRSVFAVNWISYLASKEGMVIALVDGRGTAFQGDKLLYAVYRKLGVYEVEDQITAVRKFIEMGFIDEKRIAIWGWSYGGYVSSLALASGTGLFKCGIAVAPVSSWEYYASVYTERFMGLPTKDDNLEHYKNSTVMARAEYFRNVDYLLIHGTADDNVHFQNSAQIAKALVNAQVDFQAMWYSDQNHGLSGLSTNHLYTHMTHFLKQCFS

FAP on hPrCSC-44 cells = molecular target: T2, FAP on hPrCSC-44 cells (human (endogenous in hPrCSC-44), UniProt Q12884 1-760); experiment: flow cytometry on cells; cells incubated with VNAR-Fc (several concentrations, or fixed 100 nM) 1 h on ice, detected with PE-labeled anti-human IgG Fc; KD from logistic fitting of mean fluorescence intensity; settings: one partner purified
T2 construct: also called endogenous FAP; source: endogenous, hPrCSC-44 immortalized cancer-associated fibroblast cells, on cells
T2 sequence (looked up): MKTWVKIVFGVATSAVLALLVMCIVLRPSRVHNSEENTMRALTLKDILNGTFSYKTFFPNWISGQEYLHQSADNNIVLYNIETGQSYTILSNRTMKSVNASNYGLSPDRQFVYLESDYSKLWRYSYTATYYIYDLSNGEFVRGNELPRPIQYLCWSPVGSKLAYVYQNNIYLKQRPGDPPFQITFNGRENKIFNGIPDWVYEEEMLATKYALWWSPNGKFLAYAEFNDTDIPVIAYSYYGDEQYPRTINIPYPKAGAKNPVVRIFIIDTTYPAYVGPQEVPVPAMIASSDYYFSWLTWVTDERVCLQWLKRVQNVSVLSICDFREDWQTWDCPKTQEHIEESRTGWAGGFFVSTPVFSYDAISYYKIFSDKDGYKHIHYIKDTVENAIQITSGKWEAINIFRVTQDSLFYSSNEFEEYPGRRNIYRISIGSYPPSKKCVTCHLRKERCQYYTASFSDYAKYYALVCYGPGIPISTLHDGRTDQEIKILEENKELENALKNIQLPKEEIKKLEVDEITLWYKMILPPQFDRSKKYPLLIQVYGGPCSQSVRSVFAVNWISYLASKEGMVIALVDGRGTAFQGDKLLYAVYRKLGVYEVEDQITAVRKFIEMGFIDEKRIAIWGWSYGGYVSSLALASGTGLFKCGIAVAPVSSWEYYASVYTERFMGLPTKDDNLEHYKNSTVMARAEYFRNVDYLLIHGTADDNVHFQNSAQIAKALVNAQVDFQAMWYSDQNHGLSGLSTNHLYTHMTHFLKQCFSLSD

FAP on CWR-R1^FAP cells = molecular target: T3, FAP on CWR-R1^FAP cells (human, UniProt Q12884 1-760); experiment: as above; settings: one partner purified
T3 construct: also called CWR-R1-EnzR^FAP
T3 sequence (looked up): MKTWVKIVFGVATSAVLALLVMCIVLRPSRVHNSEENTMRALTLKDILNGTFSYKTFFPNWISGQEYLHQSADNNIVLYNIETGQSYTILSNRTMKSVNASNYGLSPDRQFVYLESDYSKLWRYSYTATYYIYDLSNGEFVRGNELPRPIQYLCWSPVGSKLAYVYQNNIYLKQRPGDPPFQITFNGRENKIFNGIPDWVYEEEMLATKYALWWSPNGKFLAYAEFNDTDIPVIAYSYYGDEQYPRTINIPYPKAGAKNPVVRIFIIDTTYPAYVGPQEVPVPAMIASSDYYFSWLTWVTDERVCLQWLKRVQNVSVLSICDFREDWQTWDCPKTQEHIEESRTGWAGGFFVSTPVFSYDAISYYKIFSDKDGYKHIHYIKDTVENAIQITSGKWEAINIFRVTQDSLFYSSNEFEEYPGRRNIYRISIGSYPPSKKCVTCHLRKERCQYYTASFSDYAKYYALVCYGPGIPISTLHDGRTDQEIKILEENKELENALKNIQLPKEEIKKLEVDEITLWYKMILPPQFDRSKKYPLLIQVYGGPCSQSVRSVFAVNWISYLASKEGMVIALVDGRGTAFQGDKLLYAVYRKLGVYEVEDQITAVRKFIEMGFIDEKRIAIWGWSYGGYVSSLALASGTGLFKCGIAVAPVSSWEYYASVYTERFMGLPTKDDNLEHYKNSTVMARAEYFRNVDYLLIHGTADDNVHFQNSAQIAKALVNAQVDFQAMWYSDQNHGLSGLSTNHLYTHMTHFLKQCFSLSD

Row | Binder | Kd [1] [nM] | Kd (FAP on hPrCSC-44 cells) [nM] | Kd (FAP on CWR-R1^FAP cells) [nM]
1 | H4-Fc (Fc fusion, nurse shark (Ginglymostoma cirratum), Bivalent human IgG1 Fc fusion (vector TGEX-SCblue); also called anti-FAP VNAR H4; VNAR-Fc; source: ExpiCHO-S, transfected, purified (protein A, SEC)) ARVDQTPQTITKETGESLTINCVLRDSNCALSSTYWYRKKSGSTNEESISKGGRYVETVNSGSKSFSLRINDLTVEDSGTYRCNVYVAGMSPCLSWGDVYGDGTAVTVN | 0.0141 | 15.6 | 12
2 | NGS2405-Fc (Fc fusion, nurse shark (Ginglymostoma cirratum), Bivalent human IgG1 Fc fusion (vector TGEX-SCblue); also called VNAR-Fc; source: ExpiCHO-S, transfected, purified (protein A, SEC)) ARVDQTPQTITKETGESLTINCVLRDSNCALSFTYWYRKKSGSTNEESISKGGRYVETVNSGSKSFSLRINDLTVEDSGTYRCNVYVGGGCPHWIDVYGDGTAVTVN | 0.356 | 6.03 | 8.44
